Results from US20250147051A1, “METHOD FOR DETECTING A TAU PROTEIN IN A SALIVA SAMPLE” (GTINVENT LIMITED, priority 2022, published 2025).
Entries after “also recorded” stand apart in the source; their conditions may differ.

Columns and labels:
[1] = tested on: plasma tau; assay: 3-step Simoa assays of human plasma (AD/MCI vs healthy control / CU); conditions: label = capture antibody; CA4 with BT2 detector; BT2 or HT7 with S1D12 or S1G2 detectors
Protocol: Human plasma samples were sourced from the commercial supplier Logical Biological Ltd. Healthy control (HC, n=12) and samples from individuals with a diagnosis of AD or mild cognitive impairment (AD/MCI, n=42) were aliquoted into low bind microfuge tubes and stored at −80° C.
The Simoa® experiments used for plasma screening utilised a 3-step protocol optimised for use with plasma samples. A standard curve (540 pg/ml−0.7 pg/ml) was created by spiking recombinant hTau40 into Tau 2.0 diluent and triple diluting. Plasma samples were diluted 1:100 and added in duplicate to the Simoa® plate followed by the addition of respective capture beads. Different antibody pairings used for plasma screening is explained in Table 28. In general, the capture antibody coated beads are mixed with diluted plasma samples, added to the plates and incubated for 30 min at 30° C. with shaking. Following the incubation, the plates were washed using the Simoa® plate washer before the addition of 0.2 μg/ml biotinylated detector antibody which was left to incubate as before for 10 min. The plates were then washed again before the addition of SBG and a final 10 min incubation. After the final incubation and wash steps the plates were transferred to the Simoa® reader and plasma tau concentrations generated against a 4-parameter fit curve. […]

[2] = target: dGAE (Homo sapiens, UniProt P10636); assay: Biacore X100 SPR binding kinetics of anti-tau scAbs (scAb captured via HuCk), analyte dGAE; conditions: lead scAbs
Chain of dGAE (P10636 614-708): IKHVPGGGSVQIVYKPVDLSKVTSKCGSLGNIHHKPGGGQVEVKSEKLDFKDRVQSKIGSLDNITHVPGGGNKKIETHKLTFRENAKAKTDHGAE
Protocol: (§1) Surface plasmon resonance (SPR) is widely regarded as the gold standard for real time measurement of protein-protein interactions such as antibody binding. All SPR experiments were carried out using a Biacore X100 machine and HBS EP+ running buffer (GE Healthcare). A ‘capture’ method was followed for affinity measurements, where an anti-human constant kappa chain (HuCk) antibody was conjugated to the surface of a CM5 sensor chip using an amine coupling kit and scAb molecules were immobilised via their HuCk domain. Amine coupling is a very common approach for immobilising the ligand to the chip surface. The chip surface has a dextran matrix derivatised with carboxyl groups, which after activation with N-hydroxysuccinimide (NHS) and 1-ethyl-3-(3-dimethylaminopropyl) carbodiimide (EDC), form reactive succinimide esters which allows the covalent capturing of the ligand via any available primary amine groups (e.g. Lysine) on the ligand (in this case anti-HuCk antibody). The capture antibody was diluted 1/100 in 10 mM Sodium acetate buffer pH 5.0 and passed over the activated chip surface for a period of at least 420 s. Final ligand immobilisation levels over 12,000 RU were deemed to be satisfactory.
(§2) Following immobilisation, the level of each scAb to be captured was identified using the standard SPR equation with a theoretical RMax of 100 RU. Analyte MW refers to the molecular weight of hT40 or dGA/dGAE molecules, while ligand MW refers to the molecular weight of the scAbs tested. RLis the desired capture level and S refers to the stoichiometric ratio:
The scAb to be tested was added only to flow cell 2 so that flow cell 1 could act as a control to subtract any interaction with the analyte and the chip surface. Both single and multi-cycle runs were utilised using wizards developed in the Biacore X100 control software which are both accepted methods of kinetic analysis (Karlsson, R., et al. Analyzing a kinetic titration series using affinity biosensors (2006) Analytical Biochemistry 349:136-47). The multi-cycle protocol was as follows-Three start-up cycles composed of an initial capture, to the desired level, of the scAb to be tested was performed followed by a 30 s injection of glycine buffer pH 2.0 after each cycle to regenerate the chip surface. The regeneration step removed any captured scAb whilst leaving the capture antibody intact and able to repeat the capture for the next cycle. […]
The single cycle kinetics protocol was similar and utilised the same level of scAb capture. […] Binding responses were analysed in Biacore X100 evaluation software and data fitted to a 1:1 binding model to obtain kinetic and affinity characterisation.

[3] = tested on: tau protein; assay: Capture ELISA of transgenic mouse brain lysates; conditions: S1D12 mAb capture; label = detection scAb; WT, L1, L66+/- and L66+/+
Protocol: Mouse brain lysates were prepared from wildtype, Line 1, Line 66+/+ and Line 66+/− (Melis et al., 2015, all surplus from Charles River, part of study R0144). All animals were female, 7-8 months old except Line 66+/+ which were 5 months old. […] The L1 cDNA construct (FIG. 23) contains human tau cDNA coding for amino acid residues 296-390 with a signal sequence and related sequences in a murine Thy-1 expression cassette. For brain lysate preparation, half brains were sectioned into four and the individual sections were homogenised in 400 μl of ice cold RIPA buffer (Cell signalling Technology) containing protease and phosphatase inhibitors. Total protein concentrations for individual samples were established by BCA-assay and each sample was subsequently diluted to 1 mg/ml for future experiments.
For capture ELISA, 100 μL S1D12 capture mAb was used to coat a nunc 96 well Maxisorp plate at 1 μg/ml and incubated for 1 hour at 37° C. Plate was washed as previously and then blocked for 1 hour at 37° C. in 2% MPBS. Brain homogenate samples (50 ng total protein) from each mouse type were added to the first wells and double diluted across the plate in PBS. These samples were left to incubate at RT for 1 hour. Various detection scAbs encompassing epitopes of interest were then added to the plate at 1 μg/ml and incubated for 1 h at RT. Secondary antibody used was anti-HuCk HRP and the assays were developed as described previously. Using S1D12 mAb capture and two separate scAb detectors, S-1G2 (FIG. 24A) and C-B7 (FIG. 24B), it was possible to differentiate between L1 and L66 samples and the wild type.

[4] = target: dGA (Homo sapiens, UniProt P10636); assay: Biacore X100 SPR binding kinetics of anti-tau scAbs (scAb captured via HuCk), analyte dGA; conditions: lead scAbs
Chain of dGA (P10636 614-707): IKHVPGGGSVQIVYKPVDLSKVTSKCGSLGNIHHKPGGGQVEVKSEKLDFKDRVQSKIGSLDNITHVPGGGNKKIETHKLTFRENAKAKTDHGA
Protocol: as §1, §2
The scAb to be tested was added only to flow cell 2 so that flow cell 1 could act as a control to subtract any interaction with the analyte and the chip surface. Both single and multi-cycle runs were utilised using wizards developed in the Biacore X100 control software which are both accepted methods of kinetic analysis (Karlsson, R., et al. Analyzing a kinetic titration series using affinity biosensors (2006) Analytical Biochemistry 349:136-47). The multi-cycle protocol was as follows-Three start-up cycles composed of an initial capture, to the desired level, of the scAb to be tested was performed followed by a 30 s injection of glycine buffer pH 2.0 after each cycle to regenerate the chip surface. The regeneration step removed any captured scAb whilst leaving the capture antibody intact and able to repeat the capture for the next cycle. Following three start-up cycles increasing concentrations (0.15625 nM-100 nM) of the target to be tested were added to the chip surface after the desired scAb capture. The target was added for a 120 s association period and 420 s dissociation period followed by another regeneration, 30 s injection of glycine buffer pH 2.0 in between each cycle.
The single cycle kinetics protocol was similar and utilised the same level of scAb capture. Three start-up cycles were used followed by 5 increasing concentrations of the analyte (6.25 nM-100 nM) for an association period of 120 s followed by a dissociation period of 420 s for each concentration. In single cycle kinetics the regeneration step was performed only after the final analyte concentration was added. Binding responses were analysed in Biacore X100 evaluation software and data fitted to a 1:1 binding model to obtain kinetic and affinity characterisation.

[5] = tested on: tau; assay: Western blot of mouse brain homogenates (WT, L66+/+, L1+/+); conditions: 20 μg brain homogenate protein, 5-month-old WT, L1+/+ mice
Protocol: Protein equivalent to 20 μg from each brain extract was separated using 4-20% bis-tris gels and run in 1×MES buffer. […] A clear band is visible in the lanes containing L66^+/+ samples, but no other bands are detectable (WT or L1^+/+). […] Once again, a band having relative mobility of 65 kDa is visible in the L66 sample with no other reactive bands present.
This band most likely corresponds to endogenous mouse tau which is of a similar size. In the L66^+/+ samples, a second band running at approximately 68 kDa is also detected. The presence of numerous other bands indicates proteolytic truncation of tau within brain homogenates.

[6] = target: T1, dGAE aggregates (Homo sapiens, UniProt P10636); assay: Sandwich ELISA LoD for SDS Triton X-100 treated dGAE aggregates; assay type: binding; conditions: label = detection scAb
T1 construct: host or cells: aggregated in house: 100 μM dGAE with DTT, 700 rpm, 37 °C, 24 h
T1 sequence (P10636 614-708): as the sequence (P10636 614-708) above
Protocol: For aggregation, 1000 μL 100 μM dGAE+10 μL 10 mM DTT was added to a ‘LoBind’ microfuge tubes and agitated at 700 RPM/37° C. for 24 hours. Resulting sample centrifuged at 17,000×g/4° C. for 60 min and supernatant discarded to remove left over monomer. Pellet resuspended in half the original volume for future experiments and hereafter referred to as ‘aggregates’. 1 μl of aggregates was added to 1 ml of PBS and SDS was added to a final concentration of 1% (w/v). This was left to incubate on lab bench for 1 h with gentle agitation every 15 minutes. In order to neutralise the SDS effect on ELISA, Triton X-100 added to a final concentration of 3% (v/v) and mixed gently by pipetting to prevent any bubble formation. 200 μl added of this mix was to the first well of an ELISA plate coated with 1 μg/ml S1D12 mAb and blocked with 2% MPBS. Similarly aggregates treated with only SDS or Triton X-100, untreated aggregates, dGAE monomers treated with only SDS or SDS+Titon X-100 were also added to designated wells as controls. All samples were then double diluted across the plate in final volumes of 100 μl. The final column was left with no protein to act as a blank. This was allowed to stand at room temperature for 1 hour followed by the addition of detection scAb-S1G2 at 10 μg/ml. Anti-HuCk HRP labelled secondary antibody was added as described previously and ELISA data generated was represented using the graph below. In addition, limits of detection (LoD) of various core binding antibody pairing for SDS Triton X-100 treated dGAE aggregates were calculated using the above describe ELISA method and substituting capture mAbs and detection scAbs as shown in Table 30.

B1: CA4: anti-tau clone, SEQ ID NO: 368 (protein)
chain: QVQLQESGPSLVKPSQTLSLTCTVSGFSLTSYSVYWVRQAPGQALEWISIMYASGRVDYNPALKSRLSITRDTSKSQFSLSLSSVTTEDTAVYYCTRGIENWGPGLLVTVSSEGKSSGASGESKVDDDIQVTQSPSSLSASLTERVSITCRTSQSVNNYLSWYQQKPGQAPKLLIYYATRLYTDVPSRFSGSGSGTDYTLTITSLEADDTATYYCLQYDSTPLAFGGGTNVEIK
modifications: CA4 amino acid sequence
- detection of tau in human plasma [1]: high levels of Core/Proline tau is detected in cognitively unimpaired (CU) samples only

B2: E1E8: anti-tau clone, SEQ ID NO: 250 (protein)
scFv: QVQLQESGPSLVKPSQTLSLTCTVSGFSLTDWGVAWVRQAPGKALEWLGTMRSGGTTDDNPALKSRLSITRDTSKSQVSLSLSSVTTEDMAMYYCARGYLSGVHYAWGRGLLVTVSSEGKSSGASGESKVDDQAVLTQPSSVSGSLGQSVSITCSGSSSNVGDGRYVSWFQQVPGSAPKLLIYDTTSRASGVPDRFSGSRSGNTATLIITSLQAEDEADYYCASIDSGNNLLFGSGTRLTVLG
modifications: E1E8 amino acid sequence
- ka ([2]; Table 24): 153500 M⁻¹ s⁻¹
- dissociation rate constant (koff) ([2]; Table 24, dissociation rate): 0.0014 s⁻¹

B3: S1G2: anti-tau binding molecule defined by its CDRs; scAb sequence SEQ ID NO: 81 (protein)
scFv: QVQLQESGPSLVKPSQTLSLTCTVSGFSLTSNSVGWVRQAPGKAPEWVAGIDTDGEEGYNPALNSRLSITRDTSKSQVSLSLSSVTSEDTAVYYCGRSYRADGLAYGYVQAIDYWGPGLLVTVSSEGKSSGASGESKVDDQAVVTQPSSVSGSLGQRVSITCSGSFIGISSVGWFQQLPGSGLRTIIVASDGRPSGVPDRFSMSKSGNTATLTISSLQAEDEADYFCGSSDRTPYTGVFGSGTRLTVLG
modifications: S1G2 amino acid sequence
- detection of tau in mouse brain homogenate [3]: tau protein was detected in 50 μg of total brain protein in all four different sample types
- ka ([4]; Table 24): 783000 M⁻¹ s⁻¹
- dissociation rate constant (kd) ([4]; Table 24, dissociation rate): 0.0003499 s⁻¹
- Western blot reactivity [5]: A band is detected in each sample (WT, L66^+/+ and L1^+/+); also recorded: able to detect the pathologic 10-kDa tau fragment
- LoD, 423 mAb capture, +SDS Triton dGAE agg. [6]: 30 ng/mL
- LoD, S1D12 mAb capture, +SDS Triton dGAE agg. [6]: approximately 2 ng/ml
- LoD, direct immobilisation of dGAE aggregates, +SDS Triton dGAE agg. [6]: 16 ng/mL
